Test results reported in patent publication US20240018502A1.

Target: plasma purified human complement protein C3 (human) (UniProt P01024)
Experiment: cell-based or functional assay

Sequence of plasma purified human complement protein C3 (human) (P01024 23-667, chain 1 of 2): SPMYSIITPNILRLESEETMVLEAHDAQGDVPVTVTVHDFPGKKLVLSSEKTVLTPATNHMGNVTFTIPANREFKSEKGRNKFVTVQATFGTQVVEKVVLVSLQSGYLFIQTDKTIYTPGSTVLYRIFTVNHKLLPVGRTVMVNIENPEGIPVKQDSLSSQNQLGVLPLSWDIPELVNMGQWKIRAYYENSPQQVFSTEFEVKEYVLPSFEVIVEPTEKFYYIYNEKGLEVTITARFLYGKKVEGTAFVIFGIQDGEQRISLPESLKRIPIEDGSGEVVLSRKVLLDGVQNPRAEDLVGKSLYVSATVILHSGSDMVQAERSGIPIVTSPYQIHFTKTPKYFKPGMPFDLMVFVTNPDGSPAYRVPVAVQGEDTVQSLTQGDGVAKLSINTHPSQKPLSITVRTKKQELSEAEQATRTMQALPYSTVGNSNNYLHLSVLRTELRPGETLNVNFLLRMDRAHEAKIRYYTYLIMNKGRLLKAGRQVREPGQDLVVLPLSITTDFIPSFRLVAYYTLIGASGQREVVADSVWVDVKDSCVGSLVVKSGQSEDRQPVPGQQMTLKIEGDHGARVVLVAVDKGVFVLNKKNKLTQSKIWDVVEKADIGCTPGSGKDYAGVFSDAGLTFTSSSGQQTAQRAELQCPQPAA
Sequence of plasma purified human complement protein C3 (human) (P01024 672-1663, chain 2 of 2): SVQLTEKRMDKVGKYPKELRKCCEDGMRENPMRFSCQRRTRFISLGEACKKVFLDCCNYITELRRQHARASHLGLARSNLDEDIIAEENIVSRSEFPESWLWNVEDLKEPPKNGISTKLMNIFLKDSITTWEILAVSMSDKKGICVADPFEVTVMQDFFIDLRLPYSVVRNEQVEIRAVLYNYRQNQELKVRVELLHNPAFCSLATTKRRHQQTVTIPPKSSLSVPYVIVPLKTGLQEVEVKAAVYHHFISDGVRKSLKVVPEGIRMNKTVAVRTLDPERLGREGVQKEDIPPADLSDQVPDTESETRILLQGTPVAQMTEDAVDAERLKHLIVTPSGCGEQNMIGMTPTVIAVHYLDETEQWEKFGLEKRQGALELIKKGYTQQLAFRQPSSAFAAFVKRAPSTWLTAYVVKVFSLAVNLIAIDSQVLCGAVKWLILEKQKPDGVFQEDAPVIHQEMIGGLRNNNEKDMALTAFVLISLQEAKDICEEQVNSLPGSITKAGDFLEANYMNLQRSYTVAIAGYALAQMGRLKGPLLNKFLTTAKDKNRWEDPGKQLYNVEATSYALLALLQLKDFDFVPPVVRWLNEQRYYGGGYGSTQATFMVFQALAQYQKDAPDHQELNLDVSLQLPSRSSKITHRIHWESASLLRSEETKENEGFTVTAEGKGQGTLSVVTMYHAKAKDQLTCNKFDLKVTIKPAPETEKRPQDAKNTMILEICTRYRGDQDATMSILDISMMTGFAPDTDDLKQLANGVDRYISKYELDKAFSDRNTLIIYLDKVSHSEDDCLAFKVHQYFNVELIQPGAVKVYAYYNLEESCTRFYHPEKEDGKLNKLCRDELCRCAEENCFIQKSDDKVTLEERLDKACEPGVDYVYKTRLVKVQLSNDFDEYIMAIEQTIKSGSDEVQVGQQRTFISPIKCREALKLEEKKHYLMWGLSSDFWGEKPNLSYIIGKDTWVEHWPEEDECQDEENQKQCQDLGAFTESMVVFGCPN

Binder	EC50 hC3 cleavage	EC50 of hC3 cleavage
MTSP-1 I41S/F99L/C122S/G151N/Q192V (enzyme) VVGGTDADEGEWPWQVSLHALGQGHSCGASLISPNWLVSAAHCYIDDRGFRYSDPTQWTAFLGLHDQSQRSAPGVQERRLKRIISHPFFNDFTLDYDIALLELEKPAEYSSMVRPISLPDASHVFPAGKAIWVTGWGHTQYGGTNALILQKGEIRVINQTTCENLLPQQITPRMMCVGFLSGGVDSCVGDSGGPLSSVEADGRIFQAGVVSWGDGCAQRNKPGVYTRLPLFRDWIKENTGV	–	34.4 nM
MTSP-1 protease domain I41G/F97V/F99L/C122S/G151N/Q192T/D217V (enzyme) VVGGTDADEGEWPWQVSLHALGQGHGCGASLISPNWLVSAAHCYIDDRGFRYSDPTQWTAFLGLHDQSQRSAPGVQERRLKRIISHPFFNDVTLDYDIALLELEKPAEYSSMVRPISLPDASHVFPAGKAIWVTGWGHTQYGGTNALILQKGEIRVINQTTCENLLPQQITPRMMCVGFLSGGVDSCTGDSGGPLSSVEADGRIFQAGVVSWGVGCAQRNKPGVYTRLPLFRDWIKENTGV	30.5 nM	–
MTSP-1 protease domain I41D/F99L/C122S/G151N/Q192T (enzyme) VVGGTDADEGEWPWQVSLHALGQGHDCGASLISPNWLVSAAHCYIDDRGFRYSDPTQWTAFLGLHDQSQRSAPGVQERRLKRIISHPFFNDFTLDYDIALLELEKPAEYSSMVRPISLPDASHVFPAGKAIWVTGWGHTQYGGTNALILQKGEIRVINQTTCENLLPQQITPRMMCVGFLSGGVDSCTGDSGGPLSSVEADGRIFQAGVVSWGDGCAQRNKPGVYTRLPLFRDWIKENTGV	47 nM	–
MTSP-1 protease domain I41D/F99L/C122S/Q175S/Q192T (enzyme) VVGGTDADEGEWPWQVSLHALGQGHDCGASLISPNWLVSAAHCYIDDRGFRYSDPTQWTAFLGLHDQSQRSAPGVQERRLKRIISHPFFNDFTLDYDIALLELEKPAEYSSMVRPISLPDASHVFPAGKAIWVTGWGHTQYGGTGALILQKGEIRVINQTTCENLLPQSITPRMMCVGFLSGGVDSCTGDSGGPLSSVEADGRIFQAGVVSWGDGCAQRNKPGVYTRLPLFRDWIKENTGV	27.4 nM	–
MTSP-1 protease domain I41D/F99L/C122S/Q192T (enzyme) VVGGTDADEGEWPWQVSLHALGQGHDCGASLISPNWLVSAAHCYIDDRGFRYSDPTQWTAFLGLHDQSQRSAPGVQERRLKRIISHPFFNDFTLDYDIALLELEKPAEYSSMVRPISLPDASHVFPAGKAIWVTGWGHTQYGGTGALILQKGEIRVINQTTCENLLPQQITPRMMCVGFLSGGVDSCTGDSGGPLSSVEADGRIFQAGVVSWGDGCAQRNKPGVYTRLPLFRDWIKENTGV	59.4 nM	–
MTSP-1 protease domain I41S/F97Q/F99L/C122S/Q175W/Q192V/D217R (enzyme) VVGGTDADEGEWPWQVSLHALGQGHSCGASLISPNWLVSAAHCYIDDRGFRYSDPTQWTAFLGLHDQSQRSAPGVQERRLKRIISHPFFNDQTLDYDIALLELEKPAEYSSMVRPISLPDASHVFPAGKAIWVTGWGHTQYGGTGALILQKGEIRVINQTTCENLLPQWITPRMMCVGFLSGGVDSCVGDSGGPLSSVEADGRIFQAGVVSWGRGCAQRNKPGVYTRLPLFRDWIKENTGV	50.6 nM	–
MTSP-1 protease domain F97E/F99L/C122S/Q175H/Q192V/D217P (enzyme) VVGGTDADEGEWPWQVSLHALGQGHICGASLISPNWLVSAAHCYIDDRGFRYSDPTQWTAFLGLHDQSQRSAPGVQERRLKRIISHPFFNDETLDYDIALLELEKPAEYSSMVRPISLPDASHVFPAGKAIWVTGWGHTQYGGTGALILQKGEIRVINQTTCENLLPQHITPRMMCVGFLSGGVDSCVGDSGGPLSSVEADGRIFQAGVVSWGPGCAQRNKPGVYTRLPLFRDWIKENTGV	7770 nM	–
MTSP-1 protease domain Q38R/I41G/Y60gG/F99M/C122S/G151N/Q192R (enzyme) VVGGTDADEGEWPWQVSLHALGRGHGCGASLISPNWLVSAAHCYIDDRGFRGSDPTQWTAFLGLHDQSQRSAPGVQERRLKRIISHPFFNDFTMDYDIALLELEKPAEYSSMVRPISLPDASHVFPAGKAIWVTGWGHTQYGGTNALILQKGEIRVINQTTCENLLPQQITPRMMCVGFLSGGVDSCRGDSGGPLSSVEADGRIFQAGVVSWGDGCAQRNKPGVYTRLPLFRDWIKENTGV	147 nM	–
MTSP-1 protease domain I41G/F97A/F99L/C122S/G151N/Q175M/Q192S (enzyme) VVGGTDADEGEWPWQVSLHALGQGHGCGASLISPNWLVSAAHCYIDDRGFRYSDPTQWTAFLGLHDQSQRSAPGVQERRLKRIISHPFFNDATLDYDIALLELEKPAEYSSMVRPISLPDASHVFPAGKAIWVTGWGHTQYGGTNALILQKGEIRVINQTTCENLLPQMITPRMMCVGFLSGGVDSCSGDSGGPLSSVEADGRIFQAGVVSWGDGCAQRNKPGVYTRLPLFRDWIKENTGV	73.1 nM	–

Second part, the binder after the results:

EC50 hC3 cleavage	EC50 of hC3 cleavage	Binder
172 nM	–	MTSP-1 protease domain F97T/F99L/C122S/G151N/Q175S/Q192T/D217A (enzyme) VVGGTDADEGEWPWQVSLHALGQGHICGASLISPNWLVSAAHCYIDDRGFRYSDPTQWTAFLGLHDQSQRSAPGVQERRLKRIISHPFFNDTTLDYDIALLELEKPAEYSSMVRPISLPDASHVFPAGKAIWVTGWGHTQYGGTNALILQKGEIRVINQTTCENLLPQSITPRMMCVGFLSGGVDSCTGDSGGPLSSVEADGRIFQAGVVSWGAGCAQRNKPGVYTRLPLFRDWIKENTGV
463 nM	–	MTSP-1 protease domain F97L/F99L/C122S/Q175K/Q192V/D217M (enzyme) VVGGTDADEGEWPWQVSLHALGQGHICGASLISPNWLVSAAHCYIDDRGFRYSDPTQWTAFLGLHDQSQRSAPGVQERRLKRIISHPFFNDLTLDYDIALLELEKPAEYSSMVRPISLPDASHVFPAGKAIWVTGWGHTQYGGTGALILQKGEIRVINQTTCENLLPQKITPRMMCVGFLSGGVDSCVGDSGGPLSSVEADGRIFQAGVVSWGMGCAQRNKPGVYTRLPLFRDWIKENTGV
89.9 nM	–	MTSP-1 protease domain I41E/F97S/F99L/C122S/Q175L/Q192V/D217A (enzyme) VVGGTDADEGEWPWQVSLHALGQGHECGASLISPNWLVSAAHCYIDDRGFRYSDPTQWTAFLGLHDQSQRSAPGVQERRLKRIISHPFFNDSTLDYDIALLELEKPAEYSSMVRPISLPDASHVFPAGKAIWVTGWGHTQYGGTGALILQKGEIRVINQTTCENLLPQLITPRMMCVGFLSGGVDSCVGDSGGPLSSVEADGRIFQAGVVSWGAGCAQRNKPGVYTRLPLFRDWIKENTGV
151 nM	–	MTSP-1 protease domain Q38L/I41R/Y60gF/F99L/C122S/G151N/Q192A (enzyme) VVGGTDADEGEWPWQVSLHALGLGHRCGASLISPNWLVSAAHCYIDDRGFRFSDPTQWTAFLGLHDQSQRSAPGVQERRLKRIISHPFFNDFTLDYDIALLELEKPAEYSSMVRPISLPDASHVFPAGKAIWVTGWGHTQYGGTNALILQKGEIRVINQTTCENLLPQQITPRMMCVGFLSGGVDSCAGDSGGPLSSVEADGRIFQAGVVSWGDGCAQRNKPGVYTRLPLFRDWIKENTGV
17.9 nM	–	MTSP-1 protease domain Q38K/I41G/Y60gG/F99L/C122S/G151N/Q192H (enzyme) VVGGTDADEGEWPWQVSLHALGKGHGCGASLISPNWLVSAAHCYIDDRGFRGSDPTQWTAFLGLHDQSQRSAPGVQERRLKRIISHPFFNDFTLDYDIALLELEKPAEYSSMVRPISLPDASHVFPAGKAIWVTGWGHTQYGGTNALILQKGEIRVINQTTCENLLPQQITPRMMCVGFLSGGVDSCHGDSGGPLSSVEADGRIFQAGVVSWGDGCAQRNKPGVYTRLPLFRDWIKENTGV
112 nM	–	MTSP-1 protease domain I41G/F97L/F99L/C122S/G151N/Q192V/D217L (enzyme) VVGGTDADEGEWPWQVSLHALGQGHGCGASLISPNWLVSAAHCYIDDRGFRYSDPTQWTAFLGLHDQSQRSAPGVQERRLKRIISHPFFNDLTLDYDIALLELEKPAEYSSMVRPISLPDASHVFPAGKAIWVTGWGHTQYGGTNALILQKGEIRVINQTTCENLLPQQITPRMMCVGFLSGGVDSCVGDSGGPLSSVEADGRIFQAGVVSWGLGCAQRNKPGVYTRLPLFRDWIKENTGV
84.3 nM	–	MTSP-1 protease domain I41D/F97T/F99L/C122S/G151N/Q192T (enzyme) VVGGTDADEGEWPWQVSLHALGQGHDCGASLISPNWLVSAAHCYIDDRGFRYSDPTQWTAFLGLHDQSQRSAPGVQERRLKRIISHPFFNDTTLDYDIALLELEKPAEYSSMVRPISLPDASHVFPAGKAIWVTGWGHTQYGGTNALILQKGEIRVINQTTCENLLPQQITPRMMCVGFLSGGVDSCTGDSGGPLSSVEADGRIFQAGVVSWGDGCAQRNKPGVYTRLPLFRDWIKENTGV
5.72 nM	–	MTSP-1 protease domain I41D/F97R/F99L/C122S/Q175L/Q192T/D217I (enzyme) VVGGTDADEGEWPWQVSLHALGQGHDCGASLISPNWLVSAAHCYIDDRGFRYSDPTQWTAFLGLHDQSQRSAPGVQERRLKRIISHPFFNDRTLDYDIALLELEKPAEYSSMVRPISLPDASHVFPAGKAIWVTGWGHTQYGGTGALILQKGEIRVINQTTCENLLPQLITPRMMCVGFLSGGVDSCTGDSGGPLSSVEADGRIFQAGVVSWGIGCAQRNKPGVYTRLPLFRDWIKENTGV
45.1 nM	–	MTSP-1 protease domain I41D/F99L/C122S/G151N/Q192T/D217A (enzyme) VVGGTDADEGEWPWQVSLHALGQGHDCGASLISPNWLVSAAHCYIDDRGFRYSDPTQWTAFLGLHDQSQRSAPGVQERRLKRIISHPFFNDFTLDYDIALLELEKPAEYSSMVRPISLPDASHVFPAGKAIWVTGWGHTQYGGTNALILQKGEIRVINQTTCENLLPQQITPRMMCVGFLSGGVDSCTGDSGGPLSSVEADGRIFQAGVVSWGAGCAQRNKPGVYTRLPLFRDWIKENTGV
28.6 nM	–	MTSP-1 protease domain I41D/F99L/C122S/G151N/Q175S/Q192T (enzyme) VVGGTDADEGEWPWQVSLHALGQGHDCGASLISPNWLVSAAHCYIDDRGFRYSDPTQWTAFLGLHDQSQRSAPGVQERRLKRIISHPFFNDFTLDYDIALLELEKPAEYSSMVRPISLPDASHVFPAGKAIWVTGWGHTQYGGTNALILQKGEIRVINQTTCENLLPQSITPRMMCVGFLSGGVDSCTGDSGGPLSSVEADGRIFQAGVVSWGDGCAQRNKPGVYTRLPLFRDWIKENTGV
1040 nM	–	MTSP-1 protease domain F97E/F99L/C122S/G151A/Q192V (enzyme) VVGGTDADEGEWPWQVSLHALGQGHICGASLISPNWLVSAAHCYIDDRGFRYSDPTQWTAFLGLHDQSQRSAPGVQERRLKRIISHPFFNDETLDYDIALLELEKPAEYSSMVRPISLPDASHVFPAGKAIWVTGWGHTQYGGTAALILQKGEIRVINQTTCENLLPQQITPRMMCVGFLSGGVDSCVGDSGGPLSSVEADGRIFQAGVVSWGDGCAQRNKPGVYTRLPLFRDWIKENTGV
23.6 nM	–	MTSP-1 protease domain F97R/ins97aI/T98P/C122S/Q175M/Q192V/D217I (enzyme) VVGGTDADEGEWPWQVSLHALGQGHICGASLISPNWLVSAAHCYIDDRGFRYSDPTQWTAFLGLHDQSQRSAPGVQERRLKRIISHPFFNDRIPFDYDIALLELEKPAEYSSMVRPISLPDASHVFPAGKAIWVTGWGHTQYGGTGALILQKGEIRVINQTTCENLLPQMITPRMMCVGFLSGGVDSCVGDSGGPLSSVEADGRIFQAGVVSWGIGCAQRNKPGVYTRLPLFRDWIKENTGV
